Measurements taken from PMC7108872 (Nature structural & molecular biology, 2019).

Target: bovine β-arrestin 1 (1–393) (bovine, UniProt P17870)
Assay: cryo-EM structure

bovine β-arrestin 1 (1–393), sequence (P17870 1-393): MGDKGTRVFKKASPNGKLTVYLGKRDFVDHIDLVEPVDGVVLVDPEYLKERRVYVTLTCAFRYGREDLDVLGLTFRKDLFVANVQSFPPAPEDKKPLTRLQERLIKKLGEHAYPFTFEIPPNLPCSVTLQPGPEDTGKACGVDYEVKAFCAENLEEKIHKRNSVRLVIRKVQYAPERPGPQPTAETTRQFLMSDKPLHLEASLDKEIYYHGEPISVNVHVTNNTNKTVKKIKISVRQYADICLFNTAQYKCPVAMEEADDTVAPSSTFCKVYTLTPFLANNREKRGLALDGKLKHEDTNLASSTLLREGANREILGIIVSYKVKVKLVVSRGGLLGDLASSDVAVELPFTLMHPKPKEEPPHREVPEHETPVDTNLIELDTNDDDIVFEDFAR

B1: Nanobody 32 (VHH)
VHH: QVQLQESGGGLVQAGGSLRLSCVVSGFFFDTVTMAWYRRAPGKHRELVASATAGGTTTYADSVKDRFTISRDNAKNTVYLQMNSLKPEDTAVYYCNTFVRSLSWGQGTQVTVSS
B1: binds.
